Here are results for 66 molecules from patent US20170296640A1 (IMMATICS BIOTECHNOLOGIES, published 2017).

The experiment deals with T1, HLA-A*02:01 (peptide-receptive MHC class I monomer after UV cleavage of the UV-sensitive ligand) (human).
T1 construct: MHC monomers loaded by UV-ligand exchange and captured on streptavidin plates
As to the kind of experiment: UV ligand-exchange ELISA; exchange yield grade (+ >=10%, ++ >=20%, +++ >=50%, ++++ >=75%). In short, it runs like this:
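Exchange yield, UV-ligand exchange: 100-fold diluted samples on streptavidin plates, 1 h at 37 °C; HRP anti-β2m 1 h at 37 °C; TMB read at 450 nm.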

The molecule KLAPIPVEL [KLAPIPVEL (SEQ ID NO: 66)] displayed a peptide exchange yield of at least 75%.
QLAPFLPQL [QLAPFLPQL (SEQ ID NO: 58)] registered a peptide exchange yield of 50 to 75%.
For the molecule VLLEDVDAAFL [VLLEDVDAAFL (SEQ ID NO: 52)], the peptide exchange yield is at least 75%.
Same read-out and setting: for SLLNKDLSL [SLLNKDLSL (SEQ ID NO: 61)] the value was at least 75%; for SLLGNSPVL [SLLGNSPVL (SEQ ID NO: 51)], at least 75%; for FLMDDNMSNTL [FLMDDNMSNTL (SEQ ID NO: 83)], 50 to 75%.
Molecule LLFDLIPVVSV [LLFDLIPVVSV (SEQ ID NO: 95)] showed a peptide exchange yield of 50 to 75%.
In the case of KILDEDLYI [KILDEDLYI (SEQ ID NO: 48)], the peptide exchange yield lay within 50 to 75%.
On to FLQELQLEHA [FLQELQLEHA (SEQ ID NO: 84)], for which the peptide exchange yield was in the range of 50 to 75%.
YLTAEILELAGN [YLTAEILELAGN (SEQ ID NO: 38)] gave a peptide exchange yield of 20 to 50%.
For the molecule GLLPKLTAL [GLLPKLTAL (SEQ ID NO: 47)], the peptide exchange yield was 50 to 75%.
FLNSVIVDL [FLNSVIVDL (SEQ ID NO: 40)] displayed a peptide exchange yield of at least 75%.
Same read-out and setting: for HLSSTTAQV [HLSSTTAQV (SEQ ID NO: 91)] the value was 20 to 50%.
On the same count and under the same terms, for ALLEGVKNV [ALLEGVKNV (SEQ ID NO: 43)] the value was 50 to 75%; for GLATIRAYL [GLATIRAYL (SEQ ID NO: 86)], 50 to 75%; for YLQDLVERA [YLQDLVERA (SEQ ID NO: 42)], at least 75%.
For KLLFEIASA [KLLFEIASA (SEQ ID NO: 92)], the peptide exchange yield lay within 50 to 75%.
NLLGMIFSM [NLLGMIFSM (SEQ ID NO: 7)] registered a peptide exchange yield of at least 75%.
Still for that read-out and setting: the same measure for FILDDSALYL [FILDDSALYL (SEQ ID NO: 45)]: 50 to 75%.
With GLTALHVAV [GLTALHVAV (SEQ ID NO: 89)], the peptide exchange yield lay within 50 to 75%.
In turn, LLAGQATTAYF [LLAGQATTAYF (SEQ ID NO: 94)] gave a peptide exchange yield of 50 to 75%.
Take FIFSYITAV [FIFSYITAV (SEQ ID NO: 81)]: the peptide exchange yield is 20 to 50%.
ALLDVSNNYGI [ALLDVSNNYGI (SEQ ID NO: 77)] gave a peptide exchange yield of at least 75%.
Still for that read-out and setting: for LLATVNVAL [LLATVNVAL (SEQ ID NO: 67)] the value was at least 75%; for FLVEVSNDV [FLVEVSNDV (SEQ ID NO: 64)], at least 75%; for GLFARIIMI [GLFARIIMI (SEQ ID NO: 87)], 20 to 50%.
On to VLGNALEGV [VLGNALEGV (SEQ ID NO: 37)], for which the peptide exchange yield lay within 50 to 75%.
For VLQGLTFTL [VLQGLTFTL (SEQ ID NO: 5)], the peptide exchange yield lay within 50 to 75%.
Consider RLHREVAQV [RLHREVAQV (SEQ ID NO: 59)], for which the peptide exchange yield fell in the range of 50 to 75%.
KLLGSLQLL [KLLGSLQLL (SEQ ID NO: 93)] came in with a peptide exchange yield of at least 75%.
As to TLLGFFLAKV [TLLGFFLAKV (SEQ ID NO: 4)], the peptide exchange yield was in the range of 20 to 50%.
ALIEEAYGL [ALIEEAYGL (SEQ ID NO: 63)] came in with a peptide exchange yield of 50 to 75%.
Take SLDLRPLEV [SLDLRPLEV (SEQ ID NO: 74)]: the peptide exchange yield was at least 75%.
Still for that read-out and setting: for FLLDLDPLL [FLLDLDPLL (SEQ ID NO: 9)] the value was 50 to 75%.
TLLAFPLLL [TLLAFPLLL (SEQ ID NO: 69)] registered a peptide exchange yield of at least 75%.
As for HLDEVFLEL [HLDEVFLEL (SEQ ID NO: 90)], the peptide exchange yield lay within 50 to 75%.
TILGDPQILL [TILGDPQILL (SEQ ID NO: 49)] yielded a peptide exchange yield of at least 75%.
AMEEAVAQV [AMEEAVAQV (SEQ ID NO: 78)] displayed a peptide exchange yield of 50 to 75%.
On to YLGEEYPEV [YLGEEYPEV (SEQ ID NO: 73)], for which the peptide exchange yield lay in the range of 50 to 75%.
In turn, QLLPQGIVPAL [QLLPQGIVPAL (SEQ ID NO: 39)] had a peptide exchange yield of 50 to 75%.
Take QIAAFLFTV [QIAAFLFTV (SEQ ID NO: 68)]: the peptide exchange yield was at least 75%.
Consider LLLDGLIYL [LLLDGLIYL (SEQ ID NO: 50)], for which the peptide exchange yield was 50 to 75%.
In turn, FLREYFERL [FLREYFERL (SEQ ID NO: 53)] gave a peptide exchange yield of at least 75%.
Molecule NLTDVSPDL [NLTDVSPDL (SEQ ID NO: 65)] showed a peptide exchange yield of 50 to 75%.
As to ALADLVPVDVVV [ALADLVPVDVVV (SEQ ID NO: 76)], the peptide exchange yield was at least 75%.
As to DIFDAMFSV [DIFDAMFSV (SEQ ID NO: 54)], the binding result is “binds”.
ALYAVIEKA [ALYAVIEKA (SEQ ID NO: 8)]: the peptide exchange yield was in the range of 50 to 75%.
Take ALAPYLDLL [ALAPYLDLL (SEQ ID NO: 62)]: the peptide exchange yield is at least 75%.
As to FLIDGSSSV [FLIDGSSSV (SEQ ID NO: 82)], the peptide exchange yield lay within 50 to 75%.
As for TLITLPLLFL [TLITLPLLFL (SEQ ID NO: 6)], the peptide exchange yield fell in the range of 50 to 75%.
GLAPAEVVVATVA [GLAPAEVVVATVA (SEQ ID NO: 85)] yielded a peptide exchange yield of 50 to 75%.
In the case of SLLIDVITV [SLLIDVITV (SEQ ID NO: 60)], the peptide exchange yield is 50 to 75%.
Turning to ILASIFETV [ILASIFETV (SEQ ID NO: 41)], the peptide exchange yield is at least 75%.
As to AMKEEKEQL [AMKEEKEQL (SEQ ID NO: 79)], the peptide exchange yield lay within 20 to 50%.
In the case of VLIEILQKA [VLIEILQKA (SEQ ID NO: 70)], the peptide exchange yield was at least 75%.
On to FLVEEIFQT [FLVEEIFQT (SEQ ID NO: 46)], for which the peptide exchange yield lay within 50 to 75%.
LQIGDFVSV [LQIGDFVSV (SEQ ID NO: 57)] came in with a peptide exchange yield of at least 75%.
With VLLDYVGNVQL [VLLDYVGNVQL (SEQ ID NO: 71)], the peptide exchange yield was at least 75%.
Regarding AALKYIPSV [AALKYIPSV (SEQ ID NO: 75)], the peptide exchange yield lay within 50 to 75%.
TLQEETAVYL [TLQEETAVYL (SEQ ID NO: 72)] came in with a peptide exchange yield of 20 to 50%.
With GLFDNRSGLPEA [GLFDNRSGLPEA (SEQ ID NO: 88)], the peptide exchange yield lay in the range of 50 to 75%.
Same read-out and setting: the same measure for FIIEEQSFL [FIIEEQSFL (SEQ ID NO: 44)]: 50 to 75%; for VILDIPLLFET [VILDIPLLFET (SEQ ID NO: 36)]: 50 to 75%.
For the molecule GLQDLLFSL [GLQDLLFSL (SEQ ID NO: 56)], the peptide exchange yield was in the range of 50 to 75%.
The molecule ILVEVDLVQA [ILVEVDLVQA (SEQ ID NO: 55)] gave a peptide exchange yield of at least 75%.
Still for that read-out and setting: the same measure for YLFDEIDQA [YLFDEIDQA (SEQ ID NO: 80)]: 50 to 75%.
